Target: Cdh1 (UniProt Q9R1K5)
Assay: Flag IP of Cdh1, HA-FMRP blot
Conditions: reference: wild type FMRP; sites S499

FMRP (from UniProt P35922) S499A
binding against the reference: stronger

Reference: paper PMC4492466
